Changes are numbered by the printed parent chain.
B1: ADP2 Fab (Fab, V domains shown)
VH: EVKLVESGGGLVQPGGSLSLSCAASGFSFPDYYMSWVRQPPGKALEWLGFIRDSANGYTTEYIASVKGRFTFSRDNSQSILYLQMNALRAEDSATYYCARYSRYYGMDYWGQGTSVTVSS
VL: SIVMTQTPKILLVSAGDRVTITCKASQTVNYDVAWYQQKPGQSPKPVIYFASNRYTGVPDRFTGSGFGTDFTFTISTVQAEDLAVYFCQQDYSAPWTFGGGTKLEIK
B2: ADP13 Fab (Fab, V domains shown)
VH: EVQLQQSGPEMVKPGTSVKISCKASGYTFTDYYINWVKQSHGKSLEWIGDISPNIGGATYNPKFKGKAILTVDKSARTAYMELRSLTSEDSAVYCCTRGGSSYPYFYAMDYWGQGTSVTVSS
VL: DIVMSQSPSSLAVSVGEKVTMSCKSSQSLLYSSNQKKYLAWYQQKPGQSPKLLIYWASTRESGVPDRFTGSGSGTDFTLTISSVKAEDLAVYYCQQFYSYPYTFGGGTKLEINR

Columns and labels:
R431A [1] = target: T1, R431A (Homo sapiens, UniProt P78325); test: high-throughput flow cytometry, HEK293 cells with mutant ADAM8, high stringency; range in parentheses; dotted box
T1 construct: expressed on HEK293 cells; also called human ADAM8 point mutant R431A
T1 sequence (ADAM8, looked up): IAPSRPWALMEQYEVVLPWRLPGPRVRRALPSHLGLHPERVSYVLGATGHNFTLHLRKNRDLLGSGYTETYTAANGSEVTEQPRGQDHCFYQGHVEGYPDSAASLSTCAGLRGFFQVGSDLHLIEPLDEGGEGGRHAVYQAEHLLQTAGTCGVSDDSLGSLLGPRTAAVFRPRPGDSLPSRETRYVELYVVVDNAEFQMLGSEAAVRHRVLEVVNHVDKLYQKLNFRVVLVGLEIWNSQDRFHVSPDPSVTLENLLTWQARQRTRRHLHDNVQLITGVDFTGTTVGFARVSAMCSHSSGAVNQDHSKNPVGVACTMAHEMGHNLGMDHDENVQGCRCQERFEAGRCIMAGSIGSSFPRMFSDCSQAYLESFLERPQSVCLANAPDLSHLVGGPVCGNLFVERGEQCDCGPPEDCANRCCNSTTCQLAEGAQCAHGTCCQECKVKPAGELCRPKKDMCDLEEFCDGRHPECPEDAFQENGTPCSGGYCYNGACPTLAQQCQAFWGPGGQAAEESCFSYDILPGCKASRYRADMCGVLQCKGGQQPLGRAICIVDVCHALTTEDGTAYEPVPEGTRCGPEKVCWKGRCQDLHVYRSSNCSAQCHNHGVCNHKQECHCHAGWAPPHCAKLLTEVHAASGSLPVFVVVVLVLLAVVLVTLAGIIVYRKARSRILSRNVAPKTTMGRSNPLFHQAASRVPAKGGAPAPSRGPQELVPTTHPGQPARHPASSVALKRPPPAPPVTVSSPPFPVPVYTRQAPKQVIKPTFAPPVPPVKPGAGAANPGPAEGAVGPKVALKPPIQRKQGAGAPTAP
Procedure: (§1) A variety of experimental parameters were optimized for high-throughput flow cytometry including blocking buffer, and primary and secondary antibody concentrations, to identify the optimal conditions for screening. Through these studies ADP2 and ADP13 were determined to be high affinity binding antibodies.
(§2) Thus, for these studies antigen-binding fragments (Fabs) of ADP2 and ADP13, which bind with lower affinity than the full antibody, were generated. In addition, higher binding stringency conditions were tested, such as increased pH, salinity, and temperature, and/or increased washing, to weaken binding sufficiently to allow identification of critical binding residues in flow cytometry. The final experimental flow cytometry conditions were: primary antibody incubation with ADP2 Fab (0.50 μg/ml), ADP13 Fab (5.00 μg/ml) and Control Ab (0.16 μg/ml) for 60 minutes in flow cytometry buffer containing 10% goat serum in PBS (Ca²⁺ and Mg²⁺ free). […] Samples were washed three times after primary antibody incubation and twice after secondary antibody incubation with PBS (Ca²⁺ and Mg′ free). Next, HEK293 cells expressing WT or mutated ADAM8 proteins or EV DNA were incubated with ADP2 or ADP13 Fabs or Control Ab at their optimal concentrations. Fab binding was detected using Alexa Fluor 488-conjugated secondary antibodies and mean cellular fluorescence determined using the Intellicyt iQue flow cytometry platform. […] This counter-screen strategy facilitates the exclusion of mutants that are locally misfolded or that have an expression defect. Binding of each test Fab to each mutant clone in the alanine scanning library was determined, in duplicate, by high-throughput flow cytometry.

K458A = target: T2, K458A (Homo sapiens, UniProt P78325); test: as above
T2 construct: expressed on HEK293 cells; also called human ADAM8 point mutant K458A
T2 sequence (ADAM8, looked up): T1 sequence (ADAM8, looked up) with A415R, K442A
Procedure: as §1, §2

R431A [2] = target: T1, R431A; test: high-throughput flow cytometry, HEK293 cells with mutant ADAM8, high stringency; range in parentheses
Procedure: as §1, §2

Row | Binder | Binding Reactivity (% WT) (R431A [1]) | Binding Reactivity (% WT) (K458A) | Binding Reactivity (% WT) (R431A [2])
1 | B1 | 26.2 % WT | 28 % WT | –
2 | B2 | – | – | 79.6 % WT
